# Measurements reported in patent US20250215403A1, “Compositions and Methods for Cardiac Tissue Regeneration” (Temple University - Of The Commonwealth System Of Higher …, priority 2022, published 2025).
# B1: PSAT1 modRNA: modified mRNA with N1-methylpseudouridine, transcribed in vitro, encoding phosphoserine aminotransferase 1 (ORF SEQ ID NO: 1, RNA SEQ ID NO: 2) (nucleic acid)
# chain: AUGGAAGCCACCAAGCAAGUGGUUAACUUUGGGCCCGGGCCUGCCAAGCUGCCACACUCGGUAUUGUUGGAGAUCCAGAAGCAGCUACUAGACUACAGAGGACUCGGCAUCAGUGUGCUCGAAAUGAGUCACAGGUCAUCAGAUUUUGCCAAGAUUAUUGGCAAUACAGAGAAUCUUGUGAGGGAAUUGCUAGCUGUUCCCAACAACUACAAGGUGAUCUUUGUACAAGGAGGUGGGUCUGGCCAGUUCAGUGCUGUCCCCUUAAAUCUGAUUGGCCUGAAAGCUGGAAGGAGUGCUGACUACGUGGUGACCGGAGCUUGGUCAGCUAAGGCUGCGGAAGAAGCCAAGAAGUUUGGAACGGUGAACAUUGUCCACCCUAAACUUGGAAGUUACACAAAAAUUCCAGACCCAAGCACCUGGAACCUCAACCCGGACGCCUCCUAUGUAUACUUCUGUGCAAACGAGACUGUGCACGGGGUGGAGUUUGACUUCGUACCUGACGUCAAGGGAGCGGUGCUGGUCUGUGACAUGUCCUCAAACUUCUUAUCCAGGCCGGUGGAUGUUUCCAAGUUUGGUGUGAUUUUCGCUGGUGCUCAGAAGAAUGUUGGCUCUGCCGGGGUGACGGUGGUGAUUGUCCGGGAUGACCUGCUGGGGUUCUCGCUCAGAGAGUGCCCAUCAGUCCUUGACUACAAAGUGCAGGCUGGGAACAACUCUUUGUAUAACACACCUCCGUGCUUCAGCAUCUACGUCAUGGGCAUGGUCCUGGAAUGGAUCAAGAACAACGGCGGGGCCGCAGCCAUGGAGAAGCUCAGCUCCAUCAAAUCCCAAAUGAUUUAUGAGAUCAUUGAUAAUUCUCAAGGAUUUUAUGUAUGCCCAGUGGAGCGCCAGAAUAGAAGCAGGAUGAACAUCCCAUUUCGCAUUGGCAACGCCAAAGGAGACGAAGCUUUGGAAAAGCGGUUUCUUGACAAGGCGGUAGAACUCAACAUGAUCUCCUUGAAGGGGCACAGGUCAGUGGGAGGCAUUCGUGCCUCUCUGUAUAACGCUGUCACAACCGAAGACGUUGAGAAGCUGGCGGCCUUCAUGAAGAAUUUCUUGGAGAUGCAUCAGCUGUGA
# modifications: N1-methylpseudouridine
# Tests used:
# [1] = HPLC measurements of oxidative stress (ROS, GSH/GSSG, NADPH, NADH) in heart post-MI; assay type: in vivo, mouse
# Description: ROS production in heart tissue was measured using HPLC for dihydroethidium (DHE) oxidation products (Magadum A., et al., Circulation. 2020, 141 (15): 1249-1265). Immediately after harvesting hearts, a 20 mg segment of heart tissue was cut into small pieces and incubated with DHE (100 μM) in PBS containing DTPA (100 μM) at 37° C. for 30 min. The sample was washed with PBS/DTPA, extracted with acetonitrile (500 μl) and briefly sonicated (3× 30 sec, 8W). After centrifugation (13,000×g, 10 min at 4° C.), the supernatant was collected and dried under vacuum, and pellets stored at −20° C. in the dark until analysis. Samples were resuspended in 120 μl PBS-DTPA and injected into the HPLC system. The superoxide-specific DHE oxidation product 2-hydroxyethidine (EOH) was quantified by comparison of the peak signal between samples and standard solutions under identical chromatographic conditions, and expressed as EOH/mg tissue.
# The level of glutathione (GSH) in heart tissue was measured by an HPLC method with electrochemical detection, as previously described (Magadum A., et al., Circulation. 2020, 141 (15): 1249-1265). Heart samples were homogenized in a 100 mM acetate buffer (pH 5.4, containing 10 μM DTPA). A small aliquot was used to quantify total protein. The remaining sample was deproteinized with 10% TCA, centrifuged at 10,000×g for 5 min at 4° C., the supernatant filtered (0.45 μm) and stored at −80° C. Samples were injected onto a C18 column (Phenomenex C18, 3 μm, 150×4.6 mm) and eluted at 0.5 ml/min using an isocratic mobile phase solution (25 mM NaH2PO4, 1 mM 1-octane sulfonic acid, 6% acetonitrile, pH 2.6, H2O with phosphoric acid). GSH levels were quantified by comparison to standards subjected to the same HPLC conditions. Glutathione disulfide (GSSG) levels were indirectly determined by its enzymatic reduction with glutathione reductase (0.6 U/ml plus 0.2 mg/ml NADPH) for 30 min. The reaction was stopped by adding 5% TCA on ice. The GSH levels were normalized by the amount of protein. GSSG quantification was achieved by the difference between total reduced GSSG to total GSH in each sample.
# [2] = Mouse MI model: echocardiography of cardiac function 28 days post-MI; assay type: in vivo
# Description: In vivo transfection of modRNA was done as described previously in a recent method paper (Magadum A., et al., Circulation. 2020, 141 (15): 1249-1265; Sultana N., et al., Mol Ther, 2017, 25 (6): 1306-1315) using sucrose citrate buffer containing 10 μl of sucrose in nuclease-free water (0.3 g/ml), 10 μl of citrate (0.1M pH-7; Sigma) mixed with 10 μl of different concentrations of modRNA in saline to a total volume of 30 μl. Immediately after LAD ligation, mice received an intra-myocardial injection of modRNA (100 μg) in total volume of 30 μL at 3 different sites (mid-anterior×2 places and apical anterior) in the peri-infarct area (Magadum A., et al., Circulation. 2020, 141 (15): 1249-1265; Magadum, A., et al., 2021, Advanced Science, 9:2004661). For in vitro transfection, RNAiMAX transfection reagent (Life Technologies) was used according to manufacturer's recommendation (Magadum A., et al., Circulation. 2020, 141 (15): 1249-1265; Sultana N., et al., Mol Ther, 2017, 25 (6): 1306-1315).
# All surgical and experimental procedures with mice were performed in accordance with protocols approved by Institutional Animal Care and Use Committees at Temple University Animal Care and Use Committee (IACUC). C57BL6 or CM-specific MADM mice (8-12-weeks-old) were anesthetized with isoflurane. MI was induced by permanent ligation of the LAD, as previously described (Garikipati, V. N. S., et al., 2019, Nature Communications, 10:4317). Briefly, the left thoracic region was shaved and sterilized. After intubation, the heart was exposed through a left thoracotomy. A suture was placed to ligate the LAD. The thoracotomy and skin were sutured closed in layers. Excess air was removed from the thoracic cavity, and the mouse was removed from ventilation when normal breathing was established. In order to determine the effect of modRNA on cardiovascular outcome after MI, modRNAs (100 μg/heart) were injected into the infarct zone immediately after LAD ligation (Magadum A., et al., Circulation. 2020, 141 (15): 1249-1265). For examination of heart histology, hearts were collected at the end of each study, quickly washed in PBS, weighed, and fixed in 4% PFA for cryo-sectioning and immunostainings. In all experiments, the surgeon was blinded to the treatment group. For assessment of heart histology, hearts were collected at the end of each study. The hearts were excised, briefly washed in PBS, perfused with perfusion buffer, weighed and fixed in 4% PFA at 4° C. overnight. The heart blocks were transverse sectioned at 6-8 μm using cryostat. The heart sections were further processed for histological evaluation using immunostaining (see below) or histological scar staining using Masson's trichrome staining kit (Sigma) according to standard procedures. Measuring the ratio of heart weight to body weight was done using a scale. This ratio was calculated as the heart tissue weight relative to the mouse total body weight in grams (g).
# Mice underwent surgery to ligate the left anterior descending coronary artery as reported previously, followed by intramyocardial administration of exosomes or EVs (1×10^9) from hiPSC cells and IMR-90 cells suspended in PBS into the left ventricular wall (border zone) at two different locations and at the heart apex at one location immediately after left anterior descending ligation (Yue, Y., et al., 2020, Circulation Research, 126:315-329). The saline group underwent the same surgery but received saline without exosomes. Tissue was harvested at 7- or 28-days post-MI for histological analysis.
molecule,measurement,setting,value
B1,GSH/GSSG ratio,[1]; heart post-MI,significantly increased
same,levels of superoxide and other ROS,"[1]; heart two days post-MI, DHE probe",reduced
same,NADH level,[1]; two days post-MI,increased
same,NADPH level,[1]; two days post-MI,increased
same,LV end-diastolic posterior wall thickness,[2],significantly increased
same,LV end-systolic posterior wall thickness,[2],significantly increased
same,Fractional Shortening (% FS),[2]; compared to Luc,significantly improved
same,LVIDd (left ventricular internal diameter end-diastole),[2]; compared to control,Improvements
same,LVIDs (left ventricular internal diameter end-systole),[2]; compared to control,Improvements
same,Ejection Fraction (% EF),"[2]; myocardial delivery, compared to Luc",significantly improved
